This series can be described thus: label from the status in PepcDB records.
Consider “MSLGKRMGAELIGTFWLVLGGCGSAVLAASSPLGIGVLGVAFAFGLTVLTMAFAIGHISGCHLNPAVSFGLVVGGRFPAKELLPYVIAQVIGAILAAGVIYLIASGKAGFELSAGLASNGYADHSPGGYTLGAGFVSEVVMTAMFLVVIMGATDARAPAGFAPIAIGLALTLIHLISIPVTNTSVNPARSTGPALFVGGWALQQLWLFWVAPLIGAAIGGALYRGLAKEP”, for which the protein production entry is “failed”.

“MSLGLDYEPSHLMFLVTVLDDRDGEVLGDAIQKLIEREEVLACHAVPCVTKKNRPGHVLVVLVDGGEDPDRVAEDVARDIMVLTGSTGVDRFDADGVYSVPSRFEDVRVVYGEREWRVSVKIAETEEGEVVTVKAEFDECREIGEETGIPPREVKAMVEAAARVGGWVDLKEREIKVQEGHHHHHH”: the protein production entry is reported as “not failed”.

Consider “MSLGTIIIVDDNKGVLTAVQLLLKNHFSKVITLSSPVSLSTVLREENPEVVLLDMNFTSGINNGNEGLFWLHEIKRQYRDLPVVLFTAYADIDLAVRGIKEGASDFVVKPWDNQKLLETLLNAASQAKDGKKEGHHHHHH”, for which the protein production entry is “not failed”.

In the case of “MSLGVLRYTLRARGHPNVTAGHRTTFEVTVDPEIGETADCIIGVSSSDSISTLPDEMKRAIARESSLVRVILRTENGYDEIRGYGHPELTLDHPTDIVCRKSDYICSRTLMIRADKAAFDLDENLVRDLRKGRELKVEIIVEYEGHHHHHH”, the protein production result is “not failed”.

Regarding “MSLITNAKLYPPRHPRAVHLAHHLAAIAPGVLVTAAIAAAAVGLRAIPGMPGISPMLLAILIGIVAHNGIGTPSWAVPGVKFSLRRVLRFAIILLGLQLTTAQLIEVGGEGLAIIAATLLATFCFTVWFGRVLGVDRKLTELIAAGTSICGASAIIATNTVTRADDEDVAYGVACVTVFGSLAMVSYPLLQSVLNLDAHGFGLWTGASIHEIAQAVAVSFQGGQRAGEFGTIAKLSRVMMLAPLVIGLGMLARVRAKHQPAGDHTATPPMPWFVLGFVAMIGVNEFVAIPHEAKSWIVAITAFLLSMALAAMGLETDLRKLAARGLRPALLGLTASLFIAGFSLALIKLTGWHG”, the protein production result is given as “failed”.

As to “MSLIVSTIASHSSLQILLGAKKEGFKTRLYVSPKRRPFYSSLPIVDDLVVAEEMTSILNDDGIVVPHGSFVAYLGIEAIEKAKARFFGNRRFLKWETTFELQDKALEGAGIPRVEVVEPEDAKPDELYFVRIEGPRGGSGHFIVEGSELEERLSTLEEPYRVERFIPGVYLYVHFFYSPILERLELLGVDERVLIADGNARWPVKPLPYTIVGNRAIALRESLLPQLYDYGLAFVRTMRELEPPGVIGPFALHFAYDGSFKAIGIASRIDGGSNADHWYSELYWGERLSMGRRIARELRLAEEEDRLEEVVTEGHHHHHH”, the protein production entry was “not failed”.

“MSLKAVIFDLDGVITDTAEYHFLAWKHIAEQIDIPFDRDMNERLKGISREESLESILIFGGAETKYTNAEKQELMHRKNRDYQMLISKLTPEDLLPGIGRLLCQLKNENIKIGLASSSRNAPKILRRLAIIDDFHAIVDPTTLAKGKPDPDIFLTAAAMLDVSPADCAAIEDAEAGISAIKSAGMFAVGVGQGQPMLGADLVVRQTSDLTLELLHEEWEQYRIRESEGHHHHHH”: the protein production entry is recorded as “not failed”.

Regarding “MSLKIAVLDDYQDAVRKLDCFNLLQDHEVKVFNNTVKGVGQLAARVADVEALVLIRERTRVTRQLLDRLPKLKIISQTGRVSRDAGGHIDLDACTDKGVVVLEGKGSPVAPAELTWALVMAAQRRIPQYVASLKHGAWQQSGLKSTTMPPNFGIGRVLKGQTLGIFGYGKIGQLVAGYGRAFGMNVLVWGRENSKERARADGFAVAESKEALFEQSDVLSVHLRLNDETRSIITVADLTRMKPTALFVNTSRAELVEENGLVTALNRGRPGMAAIDVFETEPILQGHTLLRMENCICTPHIGYVERESYEMYFGIAFQNILDVLQGNVDSVANPTALAPALIRAEGHHHHHH”, the protein production entry was “not failed”.

For the sequence “MSLKKLLLLLIIVALFISAFAFDLTQYLSLDVLKEKQQQLNQLFVDYPFQVFAIYFVVYVASTALSLPGATILTLGAGAIFGLGWGLLLASFAASLGAFLAFLSARFILHDWVQEKFGDRLTAINRGMERDGAFYLLSLRLVPLFPFFVINLVMGLTKIKAWTFYWVSQVGMLLGTAVYVNAGTQLAQISSLGDVISADLIGAFVLLGIFPLIAKAVLAFVKRRKAFKGYKKPKSFDNNLVVIGAGSAGLVSAYIAATVKAKVTLIEKHKMGGDCLNTGCVPSKALLHVAELAHNARNASSAGVHVGEVSVDFKQVMQQVKSVIKDIEPHDSVERYTKLGVDVEQGDARIVSPWEVEVTSNVEGKSETKRITTRSIIIATGAKPLVPDFEGLDKVDYLTSDTLWELDELPKRLLVLGGGPIGCELSQAFQRLGSQVTQVEMAERLMGPEDADTVELLTRRLTAEGIDIRLNHKALRFEQHNGESVLIAEQTVDNESVDNQNADQSKDVEIPFDKVLIALGRQPNITGFGLEELGVQTNKTVSTNELLQTNFPNIYACGDVAGPYQLTHVASHQAWYASVNALFDPFKTFRADYSVIPWVTYTSPQVANVGLTEQQAKKADKPYEVTEYDIGELDRAIADDSAYGRVKVLTKPGKDELLGVNIVGPQAGELLAEYVLAMKYGIGLNKILGTIHSYPTLAEANKYVAGEWKRANAPQKLLTWVEKFHRWRRS”, the protein production entry is listed as “failed”.

With “MSLKRFDLIIRSSTVVTETTTYRADVAIRNGIVSAITEPGSISSDDGPAIDGTGLHLFPGMVDVHVHFNEPGRTEWEGFASGSKSLAAGGVTTYFDMPLNSNPPTITREELDKKRQLANEKSLVDYRFWGGLVPGNIDHLQDLHDGGVIGFKAFMSECGTDDFQFSHDETLLKGMKKIAALGSILAVHAESNEMVNALTTIAIEEQRLTVKDYSEARPIVSELEAVERILRFAQLTCCPIHICHVSSRKVLKRIKQAKGEGVNVSVETCPHYLLFSLDEFAEIGYLAKCAPPLRERQEVEDLWDGLMAGEIDLISSDHSPSLPQMKTGKTIFEVWGGIAGCQNTLAVMLTEGYHKRKMPLTQIVQLLSTEPAKRFGLYPQKGTIQVGAEASFTLIDLNESYTLNASDLYYRHPISPYVGQRFRGKVKHTICQGKHVYQDHEGHHHHHH”, the protein production entry is on record as “not failed”.

Consider “MSLKRILIVDDDTAILDSTKQILEFEGYEVEIAATAGEGLAKIENEFFNLALFDIKLPDMEGTELLEKAHKLRPGMKKIMVTGYASLENSVFSLNAGADAYIMKPVNPRDLLEKIKEKLDEQEKEGHHHHHH”, for which the protein production entry is given as “not failed”.

“MSLKYIIGMDVGTTATKGVLYDINGKAVASVSKGYPLIQTKVGQAEEDPKLIFDAVQEIIFDLTQKIDGKIAAISWSSQMHSLIGLGSDDELLTNSITWADNCAKSIVQDAKNRGFAQQIYRKTGMPMHPMAPIYKLLWLKNKKTEVFSQAQKWIGIKEYIIFRLTGKLVTDTTMAAGTGILNLKTLTWDQELLDILKIKKEQLPKIAQPTKVIFPIKTEYVKKLGIDSDTKIILGASDGYLSTIGVNAIDSDHCALNVGTSGAIRTIVDQPKIDPSASYFCYPADKTHYLLGGPVNNGGIVFNWARQTLFDADETPQDFLDVAQTAPAGSRNLIFLPYLGGERAPIWDANARGSFVGLTRMHQKPEMARAVIEGIIFNLYDAASNLIKNTKKPVAINATGGFLKSDFVRQLCANIFNVPIVTMKEQQSGTLAAMFLARQALGLNQDLSEIGQFAQADKVYFPNPKEAATYQKLFPLYCEIRNALAASYGKFSNINEGHHHHHH”: the protein production result is reported as “not failed”.
